In publication PMC11329725 (Nature Communications, 2024):

T1: His6-HDOB1 (human BRCA2 helical domain and OB fold 1, residues 2479-2807) (human, UniProt P51587 2479-2807)
T1 sequence: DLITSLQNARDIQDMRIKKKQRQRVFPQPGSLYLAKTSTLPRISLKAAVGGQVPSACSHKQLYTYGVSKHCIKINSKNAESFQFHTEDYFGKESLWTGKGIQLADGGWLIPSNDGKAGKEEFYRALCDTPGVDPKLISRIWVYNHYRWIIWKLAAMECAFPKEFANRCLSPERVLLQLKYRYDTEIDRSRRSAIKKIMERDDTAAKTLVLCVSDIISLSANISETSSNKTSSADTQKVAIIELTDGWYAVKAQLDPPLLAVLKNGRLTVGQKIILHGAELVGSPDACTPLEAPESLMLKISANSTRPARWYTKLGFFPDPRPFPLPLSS

T2: BRCA2 DBD (mouse, UniProt P97929 2378-3115)
T2 sequence: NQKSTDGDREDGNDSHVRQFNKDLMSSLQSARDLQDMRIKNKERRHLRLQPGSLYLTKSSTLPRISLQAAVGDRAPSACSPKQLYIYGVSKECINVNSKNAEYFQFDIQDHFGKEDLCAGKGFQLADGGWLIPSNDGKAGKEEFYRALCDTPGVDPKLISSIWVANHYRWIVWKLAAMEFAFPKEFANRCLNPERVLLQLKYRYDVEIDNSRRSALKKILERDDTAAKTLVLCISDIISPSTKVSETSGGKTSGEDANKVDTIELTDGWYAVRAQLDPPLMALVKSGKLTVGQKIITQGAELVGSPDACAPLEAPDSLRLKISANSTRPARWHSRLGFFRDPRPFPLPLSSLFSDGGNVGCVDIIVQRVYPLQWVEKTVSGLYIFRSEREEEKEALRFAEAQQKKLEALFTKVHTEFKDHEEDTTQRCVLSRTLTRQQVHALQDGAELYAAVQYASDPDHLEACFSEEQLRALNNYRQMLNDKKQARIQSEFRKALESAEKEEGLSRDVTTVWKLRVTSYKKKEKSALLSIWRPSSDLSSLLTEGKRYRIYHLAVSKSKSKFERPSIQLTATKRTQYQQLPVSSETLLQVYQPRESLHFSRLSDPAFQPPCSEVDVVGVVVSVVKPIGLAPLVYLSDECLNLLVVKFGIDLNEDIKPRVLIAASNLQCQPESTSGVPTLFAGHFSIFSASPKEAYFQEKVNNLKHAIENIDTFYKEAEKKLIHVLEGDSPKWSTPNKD

T3: OB23 (OB2-OB3 with tower) (human, UniProt P51587 2808-3192)
T3 sequence: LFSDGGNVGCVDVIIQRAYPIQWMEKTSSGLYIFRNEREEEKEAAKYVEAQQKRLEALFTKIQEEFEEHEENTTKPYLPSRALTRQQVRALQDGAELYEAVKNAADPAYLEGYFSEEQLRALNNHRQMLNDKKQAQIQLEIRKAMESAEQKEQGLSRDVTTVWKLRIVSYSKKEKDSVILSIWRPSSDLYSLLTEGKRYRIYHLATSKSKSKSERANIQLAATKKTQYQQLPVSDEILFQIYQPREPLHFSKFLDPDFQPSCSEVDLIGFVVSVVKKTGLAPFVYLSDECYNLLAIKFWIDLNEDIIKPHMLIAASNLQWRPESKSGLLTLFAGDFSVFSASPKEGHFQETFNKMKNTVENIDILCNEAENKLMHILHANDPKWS

B1: GST-DSS1 1-54, co-expressed with His6-HDOB1 in E. coli (domain or fragment)
chain: MSEKKQPVDLGLLEEDDEFEEFPAEDWAGLDEDEDAHVWEDNWDDDNVEDDFSN
B2: Cy5 80-mer ssDNA (oligo 1) (ssDNA)
DNA: TTATATCCTTTACTTTGAATTCTATGTTTAACCTTTTACTTATTTTGTATTAGCCGGACCTTATTTCAATTATGTTCAT
B3: Cy5 80-bp dsDNA (oligo 1/oligo 2) (dsDNA)
DNA 1: B2 DNA
DNA 2: ATGAACATAATTGAAATAAGGATCCGGCTAATACAAAATAAGTAAAAGGTTAAACATAGAATTCAAAGTAAAGGATATAA

Key:
[1] = biological target: T1, His6-HDOB1 (human BRCA2 helical domain …); experiment: co-purification
[2] = biological target: BRCA2 DBD;DSS1(1-36) (partner of DBD) (mouse;human?, UniProt P97929;P60896 2378-3115;1-36, |del37-70); experiment: EMSA
BRCA2 DBD = biological target: T2, BRCA2 DBD; experiment: EMSA
[3] = biological target: T3, OB23 (OB2-OB3 with tower); experiment: EMSA
[4] = biological target: BRCA2 DBD;DSS1(1-54) (partner of DBD) (mouse;human?, UniProt P97929;P60896 2378-3115;1-54, |del55-70); experiment: EMSA
[5] = biological target: BRCA2 DBD;DSS1 R57Q (partner of DBD) (mouse;human?, UniProt P97929;P60896 2378-3115;1-70, |R57Q); experiment: EMSA

binding result [1]	Binder	binding result [2]	binding result (BRCA2 DBD)	Kd [3] [nM]	binding result [4]	binding result [5]
binds	B1	–	–	–	–	–
–	B2	binds	binds	270	binds	binds
–	B3	binds	binds	–	binds	binds
binds	MSEKKQPVDLGLLEEDDEFEEFPAEDWAGLDEDEDAHVWEDNWDD (domain or fragment) [GST-DSS1 1-45, co-expressed with His6-HDOB1 in E. coli]	–	–	–	–	–
